From publication PMC9019756

Target: T1, His6-PhoP (Actinosynnema pretiosum X47 (derived from A. pretiosum subsp. auranticum ATCC 31565)) (UniProt A0A290ZEW1)
T1 sequence: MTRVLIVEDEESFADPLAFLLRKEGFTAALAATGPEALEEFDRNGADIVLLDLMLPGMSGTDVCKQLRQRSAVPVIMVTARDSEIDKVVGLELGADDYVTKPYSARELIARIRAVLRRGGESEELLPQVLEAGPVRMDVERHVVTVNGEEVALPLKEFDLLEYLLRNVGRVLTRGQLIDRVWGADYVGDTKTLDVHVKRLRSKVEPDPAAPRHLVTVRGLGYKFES
Test: EMSA
Details: EMSA: 100 fmol biotin probe, binding buffer (composition not given), poly(dI-dC), 20-30 min at room temperature, 8% native PAGE; protein dialyzed in 50 mM …

Row | Sequence | binding
1 | GTGACTGGAGTTCCTTACCCCGATCCGGTGACCGGGGCCGGCGGCCCAGCCCCGGTCCCGCGATCCGCGAAAGCAGCCGCGAACCGCCGCTGACCTGGTCGAACGGCCCGCTGGAAGATCGCTTGAGCACCGCCGACGACGAGCGTCGACGCCCCCGCCCCGCAGCGGGCGGGGGCAGTCCCCCGTTGGAGTGCTCAGCTCCCCCCGGCGACGGCCGTACTAGGCGGCGGTCGTGTAGGGAAAGA (double strand) [fliM promoter probe] | no binding
2 | GTGACTGGAGTTCCTTTTCGCGCAACAGCCGGTACCGGGTTCAGGTTAAACCGAGCAAGATAGCCCTAGAGGGGACACCAGCGGATACAGAGAGCAACAAAACAGGCACGTACAGAAGTCTTGTTAGCCCAGAAGGGTGATAAACGCCCCGATGTCGAGCGTTCCTCGCCACAGACACGTCACATCTGGCGAACTCGGTCGTTTGCTAGGCCGGGAAGGGAGAAGAGGGTAACGACGAGTCGTGTAGGGAAAGA (double strand) [ssgB promoter probe] | binds
3 | TCTTTCCCTACACGACCGGCTTCCGTCCTTGGATGTCGGGCATCGGGCCCGTCCGTGGGTCCGTGGCGTTACAAACGGCAGTGCGCCTTCACTCCTGAGGGGGAACGAAGGGCGGCCAGGGTGGAGAAGGCCCGGCCGCCCGTCACCCGTAAGGAACTCCAGTCAC (double strand) [swrD promoter probe] | no binding
